The results in this text go back to patent US6911324B2, “Induction of beta cell differentiation in human cells” (The Regents of the University of California, priority 2001, dated 2005).

In this assay the test system is βlox5 cells. The experiment in a line: RT-PCR analysis of pancreatic hormone gene expression in βlox5 cells. The note with it: βlox5 cells expressing PDX-1; data not shown. The format is cell-based, human. The method, then: FIG. 2: RT-PCR analysis of pancreatic hormone gene expression in βlox5. The conditions tested were βlox5 cells grown in monolayer culture, βlox5 cells infected with a retroviral vector expressing PDX-1, βlox5 cells grown as three-dimensional aggregates, and βlox5 cells treated with exendin-4. FIG. 2(A) insulin; FIG. 2(B) quantitative RT-PCR analysis of insulin gene expression; FIG. 2(C) other pancreatic hormones. Exendin-4 (Sigma) was used at a concentration of 10 nM. RT-PCR for insulin, somatostatin, glucagon, and IAPP have been described previously (Itkin-Ansari et al., submitted). Quantitative RT-PCR was done by interpolation from a standard curve constructed using a plasmid containing the human insulin cDNA.
PDX-1 also acted synergistically with cell-cell contact to further increase the level of somatostatin expression about 1,000-fold above the cells not expressing PDX-1, to a level similar to that found in normal human islets. To determine whether βlox5 could be induced to express pancreatic hormones, recombinant PDX-1 was expressed in βlox5 using a retroviral vector. […] Therefore, other factors were examined for their ability to induce hormone expression in βlox5 cells expressing PDX-1. […]

B1: betacellulin (protein, UniProt P35070 32-111, looked up)
Betacellulin: DGNSTRSPETNGLLCGDPEENCAATTTQSKRKGHFSRCPKQYKHYCIKGRCRFVVAEQTPSCVCDEGYIGARCERVDLFY
notes: factor reported to induce endocrine differentiation in cell lines and primary cells
For the molecule B1, the “effect on hormone expression in βlox5 cells” value is “no effect”.
